Reference: patent publication US20230093155A1
Values joined by “and” are separate entries in the source; they are usually repeats but may differ in a detail not shown here. Equal values may be shown once.

Biological target: IL-2Rβ and γc complex expressed on the lymphocytes (human) (UniProt P14784)
Experiment: cell-based or functional assay

Sequence of IL-2Rβ and γc complex expressed on the lymphocytes (human) (P14784 27-551, chain 1 of 2): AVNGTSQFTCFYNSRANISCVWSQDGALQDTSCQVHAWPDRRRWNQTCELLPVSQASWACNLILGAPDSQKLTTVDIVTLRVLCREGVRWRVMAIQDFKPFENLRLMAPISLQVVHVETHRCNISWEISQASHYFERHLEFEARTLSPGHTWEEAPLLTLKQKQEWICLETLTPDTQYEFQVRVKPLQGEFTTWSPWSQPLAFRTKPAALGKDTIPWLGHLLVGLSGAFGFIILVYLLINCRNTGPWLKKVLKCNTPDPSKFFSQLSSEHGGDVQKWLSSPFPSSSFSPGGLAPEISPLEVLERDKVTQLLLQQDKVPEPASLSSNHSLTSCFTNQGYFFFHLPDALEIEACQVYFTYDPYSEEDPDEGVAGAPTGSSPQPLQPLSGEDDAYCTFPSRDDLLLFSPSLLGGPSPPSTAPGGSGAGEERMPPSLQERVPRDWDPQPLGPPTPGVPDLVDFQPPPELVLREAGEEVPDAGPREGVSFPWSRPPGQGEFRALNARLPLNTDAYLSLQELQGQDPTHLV
Sequence of IL-2Rβ and γc complex expressed on the lymphocytes (human) (P31785 23-369, chain 2 of 2, further chain): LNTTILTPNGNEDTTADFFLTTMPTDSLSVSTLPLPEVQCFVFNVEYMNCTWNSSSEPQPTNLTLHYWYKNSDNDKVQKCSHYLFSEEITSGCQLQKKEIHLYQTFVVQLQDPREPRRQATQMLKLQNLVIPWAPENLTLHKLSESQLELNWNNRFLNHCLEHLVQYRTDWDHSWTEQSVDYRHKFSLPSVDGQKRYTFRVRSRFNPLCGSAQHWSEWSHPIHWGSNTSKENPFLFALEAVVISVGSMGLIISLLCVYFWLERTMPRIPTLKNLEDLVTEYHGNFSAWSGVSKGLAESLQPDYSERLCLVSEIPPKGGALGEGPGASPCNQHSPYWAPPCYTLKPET

Which results are given for “P-0356 (IL-15 I68F/IL-15Rα Fc fusion) (from UniProt Q13261 31-107)”?
CD8 T cell proliferation EC50 (pM): 1250 pM; Fold change vs. P-0313: 29 fold

“P-0358 (IL-15 I68H/IL-15Rα Fc fusion) (from UniProt Q13261 31-107)” was tested. Which CD8 T cell proliferation EC50 (pM) did it give?
The CD8 T cell proliferation EC50 (pM) was 419 pM.

What about the Fold change vs. P-0313 of the same substance?
Its Fold change vs. P-0313 is 9.5 fold.

“P-0738 (IL-15 I68K/IL-15Rα Fc fusion) (from UniProt Q13261 31-107)” was tested. Which CD8 T cell proliferation EC50 (pM) did it give?
Its CD8 T cell proliferation EC50 (pM) is 24800 pM.

What about the Fold change vs. P-0313 of the same substance?
The Fold change vs. P-0313 was 564 fold.

For “P-0769 (IL-15 V63K/IL-15Rα Fc fusion) (from UniProt Q13261 31-107)”, which CD8 T cell proliferation EC50 (pM) is on record?
Its CD8 T cell proliferation EC50 (pM) is 360 pM.

What about the Fold change vs. P-0313 of the same substance?
Its Fold change vs. P-0313 is 11.3 fold.

For “P-0770 (IL-15 V63R/IL-15Rα Fc fusion) (from UniProt Q13261 31-107)”, which CD8 T cell proliferation EC50 (pM) is on record?
The CD8 T cell proliferation EC50 (pM) was 184 pM.

And the Fold change vs. P-0313?
The Fold change vs. P-0313 was 5.8 fold.

With “P-0768 (IL-15 V63A/I68G/IL-15Rα Fc fusion) (from UniProt Q13261 31-107)” as the substance, how does the CD8 T cell proliferation EC50 (pM) read?
The CD8 T cell proliferation EC50 (pM) was 48000 pM.

And the Fold change vs. P-0313?
Its Fold change vs. P-0313 is 1510 fold.

How did the CD8 T cell proliferation EC50 (pM) turn out when “P-0793 (IL-15 Q108A/IL-15Rα Fc fusion) (from UniProt P0DOX5 223-448; Q13261 31-107)” was run?
Its CD8 T cell proliferation EC50 (pM) is 68800 pM.

What about the Fold change vs. P-0313 of the same substance?
Its Fold change vs. P-0313 is 2170 fold.

What does the source list for “P-0772 (IL-15 V63A/I68Q/IL-15Rα Fc fusion) (from UniProt Q13261 31-107)”?
CD8 T cell proliferation EC50 (pM): 15400 pM; Fold change vs. P-0313: 485 fold

Which results are given for “P-0737 (IL-15 I68G/IL-15Rα Fc fusion) (from UniProt Q13261 31-107)”?
CD8 T cell proliferation EC50 (pM): 14500 pM; Fold change vs. P-0313: 330 fold

Which results are given for “P-0773 (IL-15 V63A/I68H variant/IL-15RαSushi Fc fusion protein) (from UniProt Q13261 31-107)”?
CD8 T cell proliferation EC50 (pM): 1420 pM; Fold change vs. P-0313: 45 fold

Which results are given for “P-0764 (IL-15 Q108S/IL-15Rα Fc fusion protein) (from UniProt P0DOX5 223-448; Q13261 31-107)”?
CD8 T cell proliferation EC50 (pM): 62100 pM; Fold change vs. P-0313: 1960 fold

Which results are given for “P-0736 (IL-15 I68Q/IL-15Rα Fc fusion) (from UniProt Q13261 31-107)”?
CD8 T cell proliferation EC50 (pM): 4470 pM; Fold change vs. P-0313: 102 fold

How did the CD8 T cell proliferation EC50 (pM) turn out when “P-0771 (IL-15 V63A/IL-15Rα Fc fusion) (from UniProt Q13261 31-107)” was run?
The CD8 T cell proliferation EC50 (pM) was 132 pM.

And the Fold change vs. P-0313?
The Fold change vs. P-0313 was 4.2 fold.

How did the CD8 T cell proliferation EC50 (pM) turn out when “P-0357 (IL-15 I68D/IL-15Rα Fc fusion) (from UniProt Q13261 31-107)” was run?
The CD8 T cell proliferation EC50 (pM) was 296000 pM.

What about the Fold change vs. P-0313 of the same substance?
The Fold change vs. P-0313 was 6730 fold.

With “P-0313 (IL-15 S58D/IL-15Rα Fc fusion) (from UniProt Q13261 31-107)” as the substance, how does the CD8 T cell proliferation EC50 (pM) read?
The CD8 T cell proliferation EC50 (pM) was 44 pM and 32 pM.

What about the Fold change vs. P-0313 of the same substance?
Its Fold change vs. P-0313 is 1 fold.
